# Data: patent US20260176314
# Tests used:
# [1] = molecular target: T1, bovine αS1 casein (variant C) (no signal peptide)
# T1 chain: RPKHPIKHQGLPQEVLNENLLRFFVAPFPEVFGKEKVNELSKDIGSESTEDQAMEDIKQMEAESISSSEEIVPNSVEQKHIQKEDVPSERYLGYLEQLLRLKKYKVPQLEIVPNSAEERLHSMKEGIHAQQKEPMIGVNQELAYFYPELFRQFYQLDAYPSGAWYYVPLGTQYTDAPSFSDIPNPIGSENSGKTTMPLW
# [2] = molecular target: T2, bovine αS2 casein (no signal peptide)
# T2 chain: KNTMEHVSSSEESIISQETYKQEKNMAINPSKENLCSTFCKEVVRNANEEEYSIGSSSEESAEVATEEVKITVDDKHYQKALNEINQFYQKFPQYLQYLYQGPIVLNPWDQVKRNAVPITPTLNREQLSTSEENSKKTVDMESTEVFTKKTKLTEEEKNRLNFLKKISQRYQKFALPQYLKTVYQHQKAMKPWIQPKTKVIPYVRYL
# [3] = molecular target: T3, bovine β casein (variant A2) (no signal peptide)
# T3 chain: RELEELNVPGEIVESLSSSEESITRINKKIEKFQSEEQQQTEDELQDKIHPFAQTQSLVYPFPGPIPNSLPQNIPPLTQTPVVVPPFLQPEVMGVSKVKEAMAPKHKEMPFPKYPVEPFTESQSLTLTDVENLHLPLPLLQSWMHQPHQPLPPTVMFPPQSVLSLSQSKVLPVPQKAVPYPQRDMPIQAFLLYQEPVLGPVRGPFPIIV
# FLAG_SERPINB14_HiBiT = molecular target: T4, FLAG_SERPINB14_HiBiT
# T4 chain: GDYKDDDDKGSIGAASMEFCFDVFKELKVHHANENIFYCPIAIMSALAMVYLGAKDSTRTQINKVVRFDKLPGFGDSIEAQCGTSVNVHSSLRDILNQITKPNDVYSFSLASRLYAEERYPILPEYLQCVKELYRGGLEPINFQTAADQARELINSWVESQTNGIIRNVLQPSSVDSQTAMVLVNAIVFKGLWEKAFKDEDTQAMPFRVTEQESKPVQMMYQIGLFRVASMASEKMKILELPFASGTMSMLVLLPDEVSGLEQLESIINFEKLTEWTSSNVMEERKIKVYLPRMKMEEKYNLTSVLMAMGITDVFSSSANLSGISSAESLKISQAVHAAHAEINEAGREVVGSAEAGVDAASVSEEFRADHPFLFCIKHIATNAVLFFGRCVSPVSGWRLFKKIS
# [4] = molecular target: FLAG_TRX_SPP1 (G158-N314)_HiBiT
# FLAG_TRX_SPP1 (G158-N314)_HiBiT, sequence (chain, as listed by the source): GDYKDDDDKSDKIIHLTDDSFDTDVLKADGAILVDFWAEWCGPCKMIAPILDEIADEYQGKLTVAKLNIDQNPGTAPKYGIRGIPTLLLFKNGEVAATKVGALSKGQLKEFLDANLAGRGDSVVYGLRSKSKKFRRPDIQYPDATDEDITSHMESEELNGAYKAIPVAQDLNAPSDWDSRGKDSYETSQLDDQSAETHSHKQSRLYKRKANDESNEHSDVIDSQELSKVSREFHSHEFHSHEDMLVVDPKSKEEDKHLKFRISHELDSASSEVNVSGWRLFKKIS
Protein,phosphorylation sites detected by LC-MS/MS after co-expression in Kluyveromyces lactis [1],phosphorylation sites detected by LC-MS/MS after co-expression in Kluyveromyces lactis [2],phosphorylation sites detected by LC-MS/MS after co-expression in Kluyveromyces lactis [3],phosphorylation sites detected by LC-MS/MS after co-expression in Pichia pastoris (FLAG_SERPINB14_HiBiT),Phosphorylation [4]
Fam20c(M1-R584)_FLAG (protein) MKMMLVRRFRVLILMVFLVACALHIALDLLPRLERRGARPSGEPGCSCAQPAAEVAAPGWAQVRGRPGEPPAASSAAGDAGWPNKHTLRILQDFSSDPSSNLSSHSLEKLPPAAEPAERALRGRDPGALRPHDPAHRPLLRDPGPRRSESPPGPGGDASLLARLFEHPLYRVAVPPLTEEDVLFNVNSDTRLSPKAAENPDWPHAGAEGAEFLSPGEAAVDSYPNWLKFHIGINRYELYSRHNPAIEALLHDLSSQRITSVAMKSGGTQLKLIMTFQNYGQALFKPMKQTREQETPPDFFYFSDYERHNAEIAAFHLDRILDFRRVPPVAGRMVNMTKEIRDVTRDKKLWRTFFISPANNICFYGECSYYCSTEHALCGKPDQIEGSLAAFLPDLSLAKRKTWRNPWRRSYHKRKKAEWEVDPDYCEEVKQTPPYDSSHRILDVMDMTIFDFLMGNMDRHHYETFEKFGNETFIIHLDNGRGFGKYSHDELSILVPLQQCCRIRKSTYLRLQLLAKEEYKLSLLMAESLRGDQVAPVLYQPHLEALDRRLRVVLKAVRDCVERNGLHSVVDDDLDTEHRAASARDYKDDDDK,"S61, S63, T64, S79, S81, S82, S83, S90, S103, and S130","S24, S25, S46, T145, S146, S150, S158, T159, and T163","S30, S32, S33, S34, T39, S50, and T56",–,–
Fam20c(M1-R584)_MYC (protein) MKMMLVRRFRVLILMVFLVACALHIALDLLPRLERRGARPSGEPGCSCAQPAAEVAAPGWAQVRGRPGEPPAASSAAGDAGWPNKHTLRILQDFSSDPSSNLSSHSLEKLPPAAEPAERALRGRDPGALRPHDPAHRPLLRDPGPRRSESPPGPGGDASLLARLFEHPLYRVAVPPLTEEDVLFNVNSDTRLSPKAAENPDWPHAGAEGAEFLSPGEAAVDSYPNWLKFHIGINRYELYSRHNPAIEALLHDLSSQRITSVAMKSGGTQLKLIMTFQNYGQALFKPMKQTREQETPPDFFYFSDYERHNAEIAAFHLDRILDFRRVPPVAGRMVNMTKEIRDVTRDKKLWRTFFISPANNICFYGECSYYCSTEHALCGKPDQIEGSLAAFLPDLSLAKRKTWRNPWRRSYHKRKKAEWEVDPDYCEEVKQTPPYDSSHRILDVMDMTIFDFLMGNMDRHHYETFEKFGNETFIIHLDNGRGFGKYSHDELSILVPLQQCCRIRKSTYLRLQLLAKEEYKLSLLMAESLRGDQVAPVLYQPHLEALDRRLRVVLKAVRDCVERNGLHSVVDDDLDTEHRAASAREQKLISEEDL,–,–,–,"S69, T76, T92, S99, S165, T202, S206, and S345",Yes
ScMNN2(M1-S36)_Fam20c(D93-R584)_FLAG (protein) MLLTKRFSKLFKLTFIVLILCGLFVITNKYMDENTSDFSSDPSSNLSSHSLEKLPPAAEPAERALRGRDPGALRPHDPAHRPLLRDPGPRRSESPPGPGGDASLLARLFEHPLYRVAVPPLTEEDVLFNVNSDTRLSPKAAENPDWPHAGAEGAEFLSPGEAAVDSYPNWLKFHIGINRYELYSRHNPAIEALLHDLSSQRITSVAMKSGGTQLKLIMTFQNYGQALFKPMKQTREQETPPDFFYFSDYERHNAEIAAFHLDRILDFRRVPPVAGRMVNMTKEIRDVTRDKKLWRTFFISPANNICFYGECSYYCSTEHALCGKPDQIEGSLAAFLPDLSLAKRKTWRNPWRRSYHKRKKAEWEVDPDYCEEVKQTPPYDSSHRILDVMDMTIFDFLMGNMDRHHYETFEKFGNETFIIHLDNGRGFGKYSHDELSILVPLQQCCRIRKSTYLRLQLLAKEEYKLSLLMAESLRGDQVAPVLYQPHLEALDRRLRVVLKAVRDCVERNGLHSVVDDDLDTEHRAASARDYKDDDDK,"S56, S61, S63, T64, S79, S81, S82, S83, S90, S103, and S130","S23, S24, S25, S46, S52, S71, S72, S73, S76, T145, S146, S150, S158, and T159","S30, S32, S33, S34, S37, T39, S50, at T56","T92, S99, S165, T202, S206, S222, S271, and S345",Yes
